From publication PMC1616947 (Nucleic Acids Research, 2006)

Target: the molecule itself
Assay: SEC + AUC

B1: MutLΔC20 deletion mutant (domain or fragment, Escherichia coli, UniProt P23367 1-595, looked up)
chain: MPIQVLPPQLANQIAAGEVVERPASVVKELVENSLDAGATRIDIDIERGGAKLIRIRDNGCGIKKDELALALARHATSKIASLDDLEAIISLGFRGEALASISSVSRLTLTSRTAEQQEAWQAYAEGRDMNVTVKPAAHPVGTTLEVLDLFYNTPARRKFLRTEKTEFNHIDEIIRRIALARFDVTINLSHNGKIVRQYRAVPEGGQKERRLGAICGTAFLEQALAIEWQHGDLTLRGWVADPNHTTPALAEIQYCYVNGRMMRDRLINHAIRQACEDKLGADQQPAFVLYLEIDPHQVDVNVHPAKHEVRFHQSRLVHDFIYQGVLSVLQQQLETPLPLDDEPQPAPRSIPENRVAAGRNHFAEPAAREPVAPRYTPAPASGSRPAAPWPNAQPGYQKQQGEVYRQLLQTPAPMQKLKAPEPQEPALAANSQSFGRVLTIVHSDCALLERDGNISLLSLPVAERWLRQAQLTPGEAPVCAQPLLIPLRLKVSAEEKSALEKAQSALAELGIDFQSDAQHVTIRAVPLPLRQQNLQILIPELIGYLAKQSVFEPGNIAQWIARNLMSEHAQWSMAQAITLLADVERLCPQLVKTP
stoichiometry N: 2
